T1: human TIGIT on Jurkat cells (TIGIT/NFAT reporter Jurkat cells, BPS Bioscience #60538); Promega TIGIT Effector … (human, UniProt Q495A1 22-244)
T1 sequence (looked up): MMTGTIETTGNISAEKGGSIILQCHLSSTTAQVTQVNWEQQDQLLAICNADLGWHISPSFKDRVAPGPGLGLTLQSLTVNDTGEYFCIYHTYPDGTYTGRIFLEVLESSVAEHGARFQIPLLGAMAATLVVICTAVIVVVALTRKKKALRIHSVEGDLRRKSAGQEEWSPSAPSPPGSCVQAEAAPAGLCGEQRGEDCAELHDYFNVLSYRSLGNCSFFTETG

T2: his-tagged human TIGIT (Acro Biosystems #TIT-H52H3) (human, UniProt Q495A1 22-141)
T2 construct: Bought protein; also called His-tagged-TIGIT (human); not shown: his tag
T2 sequence (looked up): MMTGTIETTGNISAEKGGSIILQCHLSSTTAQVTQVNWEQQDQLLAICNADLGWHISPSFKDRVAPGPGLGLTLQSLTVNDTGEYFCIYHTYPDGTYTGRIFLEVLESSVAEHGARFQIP

T3: his-tagged murine TIGIT (Acro Biosystems #TIT-M52E6) (murine, UniProt P86176 29-148, limits assumed)
T3 construct: Bought protein; also called mouse his-tagged TIGIT; not shown: his tag
T3 sequence (looked up): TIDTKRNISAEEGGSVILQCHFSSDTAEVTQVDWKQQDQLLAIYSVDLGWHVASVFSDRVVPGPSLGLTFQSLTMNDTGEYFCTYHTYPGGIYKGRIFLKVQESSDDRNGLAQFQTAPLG

B1: 43352p1.A11 (scFv, V domains shown)
VH: DVQLVESGGGVVRPGESLRLSCAASGFTFSSHAMSWVRQAPGEGLEWVSLTSGNGVSAYYADSVKGRFTISRDNSKNTLYLQMNSLSAEDTAIYYCARGTYLISFFDYWGLGTLVTVSS
VL: QSVLTQPPSASGTPGQRVTISCSGISAKIGNNYVSWYQQLPGTAPKLLIYFNNQRPSGVPDRFSGSKSGTSASLAISGLQSEDEADYYCASWDDSLNAWLFGGGTKLTVL
B2: 43352p1.D11 (scFv, V domains shown)
VH: DVQLVESGGGVVRPGESLRLSCAASGFTFSSHAMSWVRQAPGEGLEWVSLISGNGVSAYYADSVKGRFTISRDNSKNTLYLQMNSLSAEDTAIYYCARGTYLISFFDYWGLGTLVTVSS
VL: QSVLTQPPSASGTPGQRVTISCSGISAKIGNNYVSWYQQLPGTAPKLLIYFNNQRPSGVPDRFSGSKSGTSASLAISGLQSEDEADYYCASWDDSLNAWLFGGGTKLTVL
B3: 43645p1.C11 (scFv, V domains shown)
VH: EVQLLESGGGLVQPGGSLRPSCATSGFTFSSYWMSWVRQAPGKGLEWVSGIHISDSTYYADSVKGRFTISRDNSKNTLYLQMNSLRAEDTAVYYCAKGHTVLQYGMDVWGQGTTVTVSS
VL: QSGLTQPPSASGTPGQRVTISCSGDISNTRNNYVSWYQQLPGTAPKLLIYGNHQRPSGVPDRFSGSKSATSASLAISGLQSEDEADYYCGTWDNTLNAWVFGGGTKLTVL
B4: 43586p2.B03 (scFv, V domains shown)
VH: EVQLLESGGGWVQPGGSLRLSCAASGFTFIDYWMSWVRQAPGKGLEWVSSISWIGDTTFYADSVKGRFTISRDSSLNTVYLQMNSLRAEDTAVYYCAKHWTVYQYGMDVWGQGTTVTVSS
VL: QSVLTQPPSASGTPGQRVTISCSGGSSKIGSKYVHWYQQLPGTAPKLLIYKDDQRPSGVPDRFSGSKSGTSASLAISGLQSEDEADYYCAAWDDRVNAWVFGGGTKLTVL
B5: 43586p2.B05 (scFv, V domains shown)
VH: EVQLLESGGGLVQPGGSLRLSCAASGFTFSDYYMNWVRQAPGKGLEYVASINWNGGTTYYADSVKGRFTISRDNSKNTLYLQMSSLRAEDTAVYYCAKDQNWNFYYGMDVWGQGTTVTVSS
VL: QSVLTQPPSASGTPGQRVTISCSGGSSNIGNNFVSWYQQLPGTAPKLLIYNEIKRPSGVPDRFSASKSGTSASLAISGLQSEDEADYYCASWDGSLRGWVFGGGTKLTVL
B6: 43586p2.C01 (scFv, V domains shown)
VH: EVQLLESGGGLVQPGGSLRLSCAASGFTFSDYYMNWVRQAPGKGLEYVASINWNGGTTYYADSVKGRFTISRDNSKNTLYLQMNSLRAEDTAVYYCAKDQNWNFYYGMDVWGQGTTVTVSS
VL: QSVLTQPPSASGTPGQRVTISCSGGSSNIGNNFVSWYQQLPGTAPKLLIYNEIKRPSGVPDRFSASKSGTSASLAISGLQSEDEADYYCASWDGSLRGWVFGGGTKLTVL
B7: 43586p2.F10 (scFv, V domains shown)
VH: VESGGGLVQPGGSLRLSCAASGFTVSDHYVSWVRQAPGKGLEWVSTSSSTNWNDGRTYYADSVKGRFTISRDNSENTLYLQMNSLRAEDTAVYYCAKDQYKGNDYYYYGMDVWGQGTTVTVSS
VL: QSVLTQPPSASGTPGQRVTISCSASNSYIGTKYFYWYQQLPGTAPKLLIYLDSQRPSGVPDRFSGSKSGTSVSLAISGLQSEDEADYYCAFWDDHLHGWVFGGGTKLTVL
B8: 43645p1.B8 (scFv, V domains shown)
VH: EVQLLESGGGLVQPGGSLRLSCAASGFTFSDFWMSWVRQAPGKGLEWVSSIINIQTYDYATYYADSVKGRFTISRDNSKNTLYLQMNSLRAEDTAIYYCAKDVAPGLPGGMDVWGQGTTVTVSS
VL: QSVLTQPPSASGTPGQRVTISCSGSNSNIRNNFVSWYQHLPGMAPKLLIYGNSQRPSGVPDRFSGSKSGTSASLAISGLQSEDEADYYCTSWDFSVNGWVFGGGTKLTVL
B9: 43645p1.C9 (scFv, V domains shown)
VH: EVQLLESGGGLVQPGGSLRLSCAASGFTFSDFWMSWVRQAPGKGLEWVSSIINIQTYDYATYYADSVKGRFTISRDNSKNTLYLQMNSLRAEDTAIYYCAKDVAPGLPGGMDVWGQGTTVTVSS
VL: QSVLTQPPSASGTPGQRVTISCSGSNSNIRNNFVSWYQHLPGTAPKLLIYGNSQRPSGVPDRFSGSKSGTSASLAISGLQSEDEADYYCTSWDFSVSGWVFGGGTKLTVL
B10: 43586p1.1.C2 (scFv, V domains shown)
VH: EVQLLESGGGLVQPGGSLRLSCAASGFTFSDYYMNWVRQAPGKGLEWVSSINWNGGTTYYADSVKGRFTISRDNSRNTLYLQMNSLRAEDTAVYYCAKDQNWNFYYGMDVWGQGTTVTVSS
VL: QSVLTQPPSASGTPGQRVTISCSGGSSNIGTNYVSWYQQLPGTAPKLLLYKEDQRPSGVPDRFSGSKSGTSASLAISGLQSEDEADYYCATWDGSLRSWVFGGGTKLTVL
B11: 43645p1.F7 (scFv, V domains shown)
VH: EVQLLESGGGLVQPGGSLRLSCAASGFTFSDFWMSWVRQAPGKGLEWVSSIINIQTYDYATYYADSVKGRFTISRDNSKNTLYLQMNSLRAEDTAIYYCAKDVAPGLPGGMDVWGQGTTVTVSS
VL: QSVLTQPPSASGTPGQRVTISCSGSNSNIRNNFVSWYQHLPGTAPKLLIYGNSQRPSGVPDRFSGSKSGTSASLAISGLQSEDEADYYCTSWDFSVNGWVFGGGTKLTVL
B12: 43645p1.F12 (scFv, V domains shown)
VH: EVQLLESGGGLVQPGGSLRLSCAASGFTFSDYWMSWVRQAPGKGLEWVSSINWNGDNTYYYADSVKGRFTISRDNSKNTLYLQMNSLRAEDTAVYYCAKSHTVLQYGMDVWGQGTTVTVSS
VL: QSVLTQPPSASGTPGQRVTISCSGSSSNIQSNYVYWYQQLPGTAPKLLIYGNHQRPSGVPDRFSGSKSDTSASLAISGLQSEDEADYYCATWDASLNVWVFGGGTKLTVL
B13: 43586p1.2.A4 (scFv, V domains shown)
VH: EVQLLESGGGLVQPGGSLRLSCAASGFTVSDHHMSWVRQAPGKGLEWVSGIDPGGKTYYVDSVKGRFTISRDNSKNTLYLQMNSLRAEDTAVYYCAREQYDWNDDMDVWGQGTTVTVSS
VL: QSVLTQPPSASGTPGQRVTISCSGSRSNVGDHYVSWYQQFPGTAPKLLIYANYQRPSGVPDRFSGSKSGTSASLAISGLQSEDEADHYCASWDASLNVWVFGGGTKLTVL

Assays:
[1] = biological target: T1, human TIGIT on Jurkat cells (TIGIT/NFAT …); test: cell-based or functional assay
[2] = biological target: T2, his-tagged human TIGIT (Acro Biosystems …); test: ELISA, coated His-TIGIT, 1 ug/ml
[3] = biological target: T3, his-tagged murine TIGIT (Acro …); test: ELISA, coated His-TIGIT, 1 ug/ml
[4] = biological target: T4, His-tagged cynomolgus monkey TIGIT (Acro Biosystems #TIT-05223) (cynomolgus monkey, UniProt A0A7N9I9V4 89-209); test: ELISA, coated His-TIGIT, 1 ug/ml
T4 construct: Bought protein; also called cyno TIGIT; cynomolgus TIGIT; not shown: His tag

[5] = biological target: T1, human TIGIT on Jurkat cells (TIGIT/NFAT …); test: flow cytometry, TIGIT/NFAT Jurkat cells, 10 ug/ml
[6] = biological target: T2, his-tagged human TIGIT (Acro Biosystems …); test: SPR (Carterra LSA), scFv-Fc captured, His-TIGIT analyte
Method: (§1) Binding affinities of anti-TIGIT antibodies to human, cyno, and murine TIGIT were measured by Surface Plasmon Resonance (SPR) on a Carterra LSA instrument. Goat anti-human Fc antibody was amine coupled to a HC30M chip. ScFv-Fc supernatants were diluted 30-fold with HBSTE and were captured by the anti-human Fc coupled HC30M chip. A 1:2 dilution series of his-tagged human TIGIT, starting at 400 nM, was injected onto the chip for binding. A dilution series was also carried out for cyno TIGIT and murine TIGIT. Data were analyzed using the Carterra™ Kinetics software.

[7] = biological target: T4, His-tagged cynomolgus monkey TIGIT …; test: as above
Method: as §1

T4 sequence (A0A7N9I9V4 entry or part of it): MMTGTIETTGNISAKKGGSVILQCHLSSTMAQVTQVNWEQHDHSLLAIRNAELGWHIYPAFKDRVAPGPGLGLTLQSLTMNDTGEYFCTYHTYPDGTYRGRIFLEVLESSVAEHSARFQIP

Binder | max. signal (% of 22G2) [1] | Elisa OD450 [2] [OD450] | Elisa OD450 [3] [OD450] | Elisa OD450 [4] [OD450] | MFI [5] [MFI] | Kd [6] [nM] | Kd [7] [nM]
B1 | 101 % of 22G2 | 0.677 | 0.056 | 0.048 | 8790 | 0.0716 | 
B2 | 105 % of 22G2 | 2.15 | 0.046 | 0.044 | 8650 | 0.0685 | 
B3 | 119 % of 22G2 | 2.18 | 1.69 | 1.65 | 9040 | 0.0888 | 
B4 |  | 1.16 | 0.047 | 0.047 | 6110 | 67.3 | 
B5 |  | 1.84 | 0.07 | 1.32 | 9320 | 0.119 | 
B6 |  | 1.81 | 0.046 | 1.32 | 7770 | 0.151 | 
B7 |  | 1.75 | 1.29 | 0.987 | 14400 |  | 
B8 |  | 1.76 | 0.052 | 1.38 | 9410 | 0.0906 | 
B9 |  | 1.86 | 0.065 | 1.39 | 16500 | 0.195 | 23.5
B10 |  | 1.49 | 0.046 | 0.817 | 6710 | 0.383 | 3.69
B11 |  | 1.97 | 0.489 | 1.52 | 15400 | 0.0741 | 
B12 |  | 0.477 | 0.052 | 0.069 | 4100 |  | 
B13 |  | 1.69 | 1.82 | 0.239 | 13700 |  | 

From patent US20230265187A1 (published 2023)
